In IntAct's records for PubMed 25517094:

Target: SH3GL1, Q99961-1
Sequence (Q99961 whole entry): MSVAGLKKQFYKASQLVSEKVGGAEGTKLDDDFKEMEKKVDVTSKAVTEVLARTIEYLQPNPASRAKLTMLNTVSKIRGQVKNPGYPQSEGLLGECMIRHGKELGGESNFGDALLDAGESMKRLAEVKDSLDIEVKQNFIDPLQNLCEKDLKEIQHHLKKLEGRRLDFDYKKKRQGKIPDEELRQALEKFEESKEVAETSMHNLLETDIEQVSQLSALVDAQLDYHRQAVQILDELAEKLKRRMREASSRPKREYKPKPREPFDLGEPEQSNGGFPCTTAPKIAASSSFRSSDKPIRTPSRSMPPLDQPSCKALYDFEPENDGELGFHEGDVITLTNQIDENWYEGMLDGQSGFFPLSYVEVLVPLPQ

Beta-1 adrenergic receptor (Mus musculus), P34971 R298E;R299E, sequence (P34971 whole entry R298E/R299E): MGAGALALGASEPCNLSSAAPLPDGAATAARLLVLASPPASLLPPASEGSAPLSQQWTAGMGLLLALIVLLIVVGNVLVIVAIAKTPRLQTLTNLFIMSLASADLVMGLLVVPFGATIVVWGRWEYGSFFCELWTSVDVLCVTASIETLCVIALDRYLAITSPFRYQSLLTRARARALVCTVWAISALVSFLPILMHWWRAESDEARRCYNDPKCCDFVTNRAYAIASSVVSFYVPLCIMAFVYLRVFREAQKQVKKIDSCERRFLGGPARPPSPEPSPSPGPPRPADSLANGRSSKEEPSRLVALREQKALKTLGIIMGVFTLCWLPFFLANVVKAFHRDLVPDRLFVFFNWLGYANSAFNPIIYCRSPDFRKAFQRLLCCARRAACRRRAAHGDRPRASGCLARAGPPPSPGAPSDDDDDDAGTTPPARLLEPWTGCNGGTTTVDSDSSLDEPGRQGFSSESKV
Beta-1 adrenergic receptor (Mus musculus), P34971 P272A;P273A;P283A;P284A, sequence (P34971 whole entry P272A/P273A/P283A/P284A): as the sequence (P34971 whole entry R298E/R299E) above, with P272A, P273A, P283A, P284A, E298R, E299R counted along it
Beta-1 adrenergic receptor (Mus musculus), P34971 P272A;P273A, sequence (P34971 whole entry P272A/P273A): as the sequence (P34971 whole entry R298E/R299E) above, with P272A, P273A, E298R, E299R counted along it
Beta-1 adrenergic receptor (Mus musculus), P34971 R271A, sequence (P34971 whole entry R271A): as the sequence (P34971 whole entry R298E/R299E) above, with R271A, E298R, E299R counted along it

Substance | effect of a mutation on the interaction
Beta-1 adrenergic receptor (Mus musculus), P34971 P272A;P273A | decreasing interaction strength
Beta-1 adrenergic receptor (Mus musculus), P34971 P272A;P273A;P283A;P284A | disrupting interaction strength
Beta-1 adrenergic receptor (Mus musculus), P34971 R271A | decreasing interaction strength
Beta-1 adrenergic receptor (Mus musculus), P34971 R298E;R299E | decreasing interaction strength
